Positions count from the first letter of the chain named.

The chains are these.
T1: human CD19 (human, UniProt P15391 20-291, limits assumed)
T1 construct: also called hCD19
T1 sequence (looked up): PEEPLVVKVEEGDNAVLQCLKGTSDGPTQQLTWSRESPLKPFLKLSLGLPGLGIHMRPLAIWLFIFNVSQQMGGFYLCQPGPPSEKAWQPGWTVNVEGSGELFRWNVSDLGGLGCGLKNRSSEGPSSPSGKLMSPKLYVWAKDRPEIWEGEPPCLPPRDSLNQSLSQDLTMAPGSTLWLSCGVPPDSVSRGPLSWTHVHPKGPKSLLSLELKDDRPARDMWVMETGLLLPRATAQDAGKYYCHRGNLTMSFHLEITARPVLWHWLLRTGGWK

B1: C9 antibody (antibody, human IgG1, lambda, V domains shown)
VH: not shown
VL: NFMLTQPHSVSESPGKTVTISCTRSSGSIADKYVQWYQQRPGSSPTIVIYYDNERPSGVPDRFSGSIDSSSNSASLTISGLKTEDEADYYCQTYDESLYGWVFGGGTKLTVLG
notes: anti-CD19, IgG, lambda; also called L7B7_C9
B2: A6 antibody (antibody, human IgG1, lambda, V domains shown)
VH: not shown
VL: B1 VL with A30G
notes: anti-CD19, IgG, lambda; also called L7B7_A6
B3: Ka3D3 antibody (antibody, human IgG1, kappa, V domains shown)
VH: not shown
VL: DIQMTQSPSSLSASVGDRVTITCRASQSIGKYLNWYQQKPGKAPKLLIYAASRLQSGVPSRFSGSGSGTDFTLTISSLQPEDFATYYCQQMHPRAPKTFGQGTKVEIKR
notes: IgG
B4: Ke8A8 antibody (antibody, human IgG1, kappa, V domains shown)
VH: not shown
VL: B3 VL with G30S, R53T
notes: IgG
B5: Ka3H8 antibody (antibody, human IgG1, kappa, V domains shown)
VH: not shown
VL: B3 VL with G30A, K31S, A95S
notes: IgG
B6: Ka3G2 antibody (antibody, human IgG1, kappa, V domains shown)
VH: not shown
VL: B3 VL with G30D, A95G
notes: IgG; also called KA3-P5G2
B7: Ke8B2 antibody (antibody, human IgG1, kappa, V domains shown)
VH: not shown
VL: B3 VL with M91K, K97R
notes: IgG; also called KE8-P3B2
B8: Ke8G11 antibody (antibody, human IgG1, kappa, V domains shown)
VH: not shown
VL: B3 VL with K31R, R53S, A95G
notes: IgG
B9: Ke86G9 antibody (antibody, human IgG1, kappa, V domains shown)
VH: not shown
VL: B3 VL with G30S, A50N, R53N, M91R, A95G, K97T
notes: IgG
B10: Ke8C7 antibody (antibody, human IgG1, kappa, V domains shown)
VH: not shown
VL: B3 VL with R24Q, S28D, G30N, K31R, R53S, M91R, A95G, K97R
notes: IgG
B11: Ke8H5 antibody (antibody, human IgG1, kappa, V domains shown)
VH: not shown
VL: B3 VL with G30A, K31R, R53S, M91F, P93K, K97Q
notes: IgG; also called KE8-P6H5
B12: Ke8G2 antibody (antibody, human IgG1, kappa, V domains shown)
VH: not shown
VL: B3 VL with K31R, S76N, M91K, K97R
notes: IgG
B13: Ke8C4 antibody (antibody, human IgG1, kappa, V domains shown)
VH: not shown
VL: B3 VL with G30S, K31R, R53N, A95G
notes: IgG
B14: Ka3B2 antibody (antibody, human IgG1, kappa, V domains shown)
VH: not shown
VL: B3 VL with S28N, A50S
notes: IgG
B15: Ke8F1 antibody (antibody, human IgG1, kappa, V domains shown)
VH: not shown
VL: B3 VL with G30A, K31S, L33V, R53G, M91F, P93K, A95R, K97Q
notes: IgG
B16: Ke81A3 antibody (antibody, human IgG1, kappa, V domains shown)
VH: not shown
VL: B3 VL with R24Q, S28D, G30N, K31R, R53S, M91R, K97R
notes: IgG
B17: Ke84G9 antibody (antibody, human IgG1, kappa, V domains shown)
VH: not shown
VL: B3 VL with G30S, R53S, M91K, A95S, K97R
notes: IgG
B18: Ke8A4 antibody (antibody, human IgG1, kappa, V domains shown)
VH: not shown
VL: B3 VL with G30A, R53S, M91F, P93K, A95S, K97Q
notes: IgG
B19: Ke8F2 antibody (antibody, human IgG1, kappa, V domains shown)
VH: not shown
VL: B3 VL with G30D, R53S, M91K, K97R
notes: IgG
B20: Ke8H3 antibody (antibody, human IgG1, kappa, V domains shown)
VH: not shown
VL: B3 VL with G30N, K31R, M91K, A95G, K97R
notes: IgG
B21: Ke8E8 antibody (antibody, human IgG1, kappa, V domains shown)
VH: not shown
VL: B3 VL with R24Q, S28D, G30N, R53S, M91K, A95G, K97R
notes: IgG
B22: Ke8H6 antibody (antibody, human IgG1, kappa, V domains shown)
VH: not shown
VL: B3 VL with G30S, A50N, R53T, M91R, A95G, K97R
notes: IgG
B23: Ke8B7 antibody (antibody, human IgG1, kappa, V domains shown)
VH: not shown
VL: B3 VL with R53S, A95S
notes: IgG
B24: Ka3C5 antibody (antibody, human IgG1, kappa, V domains shown)
VH: not shown
VL: B3 VL with G30S, K31R, A50S, R53S
notes: IgG; also called KA3-P5C5
B25: Ka3A2 antibody (antibody, human IgG1, kappa, V domains shown)
VH: not shown
VL: B3 VL with G30S, A95S
notes: IgG
B26: Ka3A3 antibody (antibody, human IgG1, kappa, V domains shown)
VH: not shown
VL: B3 VL with G30A, K31S
notes: IgG; also called KA3-P1A3
B27: Ke8G6 antibody (antibody, human IgG1, kappa, V domains shown)
VH: not shown
VL: B3 VL with K31R, R53S
notes: IgG
B28: Ka3H3 antibody (antibody, human IgG1, kappa, V domains shown)
VH: not shown
VL: B3 VL with R24Q, S28D, G30A, R53A, A95S
notes: IgG
B29: Ke81G9 antibody (antibody, human IgG1, kappa, V domains shown)
VH: not shown
VL: B3 VL with G30D, M91R, P93K, A95S, K97Q
notes: IgG
B30: Kc4C3 antibody (antibody, human IgG1, lambda, V domains shown)
VH: not shown
VL: QSALTQPASVSGSPGQSITISCTGTSSDVRAANYVSWYQQHPGKAPKLMIYKNSTRPSGVSNRFSGSKSGNTASLTISGLQAEDEADYYCSSYDWWFRPKVFGGGTKLTVLG
notes: IgG, lambda
B31: Kc4B1 antibody (antibody, human IgG1, lambda, V domains shown)
VH: not shown
VL: B30 VL with A32N, K52E, N53S, T55A
notes: IgG, lambda
B32: Kc4C11 antibody (antibody, human IgG1, lambda, V domains shown)
VH: not shown
VL: B30 VL with A31G, A32N, K52E, T55K
notes: IgG, lambda
B33: Kc4A4 antibody (antibody, human IgG1, lambda, V domains shown)
VH: not shown
VL: B30 VL with G24R, R30N, A31N, A32T, N53T, T55G
notes: IgG, lambda
B34: Kc4G11 antibody (antibody, human IgG1, lambda, V domains shown)
VH: not shown
VL: B30 VL with R30G, A31K, N53D, T55D
notes: IgG, lambda
B35: Kc4A1 antibody (antibody, human IgG1, lambda, V domains shown)
VH: not shown
VL: B30 VL with R30S, A32R, K52E, N53S, T55K
notes: IgG, lambda
B36: Kc4E10 antibody (antibody, human IgG1, lambda, V domains shown)
VH: not shown
VL: B30 VL with R30N, A31S, N53S, T55S
notes: IgG, lambda
B37: Kc4F4 antibody (antibody, human IgG1, lambda, V domains shown)
VH: not shown
VL: B30 VL with A31R, K52Q, N53D, T55S
notes: IgG, lambda
B38: Kc4E2 antibody (antibody, human IgG1, lambda, V domains shown)
VH: not shown
VL: B30 VL with R30Y, A31Y, A32N, N33K, K52E, N53S, T55K
notes: IgG, lambda; also called KC4-P2E2
B39: Kc4G9 antibody (antibody, human IgG1, lambda, V domains shown)
VH: not shown
VL: B30 VL with R30E, A31R, A32K
notes: IgG, lambda
B40: 5A3M4 (antibody, human IgG1, kappa, V domains shown)
VH: not shown
VL: DIQMTQSPSSLSASVGDRVTITCQASQDINKYLNWYQQKPGKAPKLLIYGASRLETGVPSRFSGSGSGTDFTFTISSLQPEDIATYYCQQKHPRNPRTFGQGTKVEIKR
notes: the list MOLECULES holds only the monovalent form; also called 5A3-M4 antibody

The first assay deals with T1, human CD19. Description: second round of affinity maturation (from D11).
For B1, the binding result is listed as “binds”.

With B2, the binding result was “binds”.

A further assay deals with T2, human CD47 (human, UniProt Q08722 19-141, limits assumed).
T2 construct: also called hCD47
Description: affinity maturation by phage display on hCD47; positive in hCD47-SIRPα inhibition screen, reformatted as IgG.
As to B3, the binding result is on record as “binds”.

In the case of B4, the binding result is recorded as “binds”.

As to B5, the binding result is reported as “binds”.

Regarding B6, the binding result was “binds”.

With B7, the binding result is on record as “binds”.

Take B8: the binding result was “binds”.

In the case of B9, the binding result was “binds”.

Turning to B10, the binding result is “binds”.

With B11, the binding result is listed as “binds”.

B12: the binding result is “binds”.

Regarding B13, the binding result was “binds”.

For the molecule B14, the binding result is “binds”.

With B15, the binding result is reported as “binds”.

Take B16: the binding result is given as “binds”.

As for B17, the binding result is “binds”.

Take B18: the binding result is “binds”.

Take B19: the binding result is on record as “binds”.

B20: the binding result is listed as “binds”.

Consider B21, for which the binding result is “binds”.

On to B22, for which the binding result is on record as “binds”.

B23: the binding result is “binds”.

With B24, the binding result is reported as “binds”.

Consider B25, for which the binding result is reported as “binds”.

With B26, the binding result is given as “binds”.

Consider B27, for which the binding result is on record as “binds”.

For B28, the binding result was “binds”.

As for B29, the binding result is “binds”.

Regarding B30, the binding result is “binds”.

As for B31, the binding result was “binds”.

Consider B32, for which the binding result is given as “binds”.

On to B33, for which the binding result is recorded as “binds”.

For the molecule B34, the binding result is given as “binds”.

In the case of B35, the binding result is reported as “binds”.

On to B36, for which the binding result was “binds”.

Turning to B37, the binding result was “binds”.

On to B38, for which the binding result was “binds”.

Take B39: the binding result is recorded as “binds”.

The target of another assay is T3, human CD47 on the cell surface (human, UniProt Q08722 19-323).
T3 construct: whole, on cells; also called huCD47; native CD47
Nature of the assay: CD47-SIRPα competitive binding assay: His-tagged soluble human SIRPα (200 ng/ml) on hCD47-transfected CHO cells, antibody 3.3 pM-330 nM; blocked ligand SIRPα.
On to B3, for which the binding result is reported as “binds”.

On to B4, for which the binding result is given as “binds”.

With B5, the binding result is recorded as “binds”.

Regarding B40, the binding result was “binds”.

Consider B6, for which the binding result is listed as “binds”.

For the molecule B7, the binding result is “binds”.

For the molecule B8, the binding result was “binds”.

For the molecule B9, the binding result is on record as “binds”.

For the molecule B10, the binding result is “binds”.

As for B11, the binding result was “binds”.

Consider B12, for which the binding result is on record as “binds”.

With B13, the binding result is recorded as “binds”.

As for B14, the binding result is “binds”.

Turning to B15, the binding result is listed as “binds”.

Regarding B16, the binding result is given as “binds”.

Consider B17, for which the binding result is given as “binds”.

As for B18, the binding result is recorded as “binds”.

Turning to B20, the binding result is given as “binds”.

Regarding B21, the binding result was “binds”.

On to B22, for which the binding result is “binds”.

On to B23, for which the binding result is on record as “binds”.

Consider B24, for which the binding result is “binds”.

Regarding B25, the binding result is recorded as “binds”.

On to B26, for which the binding result is “binds”.

Turning to B27, the binding result is reported as “binds”.

Turning to B28, the binding result is “binds”.

For the molecule B29, the binding result is given as “binds”.

Turning to B30, the binding result was “binds”.

As to B31, the binding result is listed as “binds”.

As to B32, the binding result is reported as “binds”.

As to B33, the binding result is listed as “binds”.

Consider B34, for which the binding result is given as “binds”.

With B35, the binding result is recorded as “binds”.

On to B36, for which the binding result is on record as “binds”.

For B37, the binding result is recorded as “binds”.

As for B38, the binding result was “binds”.

Take B39: the binding result was “binds”.

Source of the values: patent publication US20240400720A1 (NOVIMMUNE S A, published 2024).
